From article PMC10397247

Legend:
[1] = target: T1, 4H1449-bH; test: two-hybrid library CCNG1;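 also: natural log of median RNA to DNA barcode read ratio; higher means stronger binding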
T1 chain: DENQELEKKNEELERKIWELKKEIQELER

[2] = target: T2, 4H1544-bH; test: two-hybrid library CCNG1;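 also: natural log of median RNA to DNA barcode read ratio; higher means stronger binding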
T2 chain: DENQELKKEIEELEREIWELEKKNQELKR

[3] = target: T3, 4H1629-bH; test: two-hybrid library CCNG1;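 also: natural log of median RNA to DNA barcode read ratio; higher means stronger binding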
T3 chain: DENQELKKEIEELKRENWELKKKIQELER

[4] = target: T4, 4H1710-bH; test: two-hybrid library CCNG1;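 also: natural log of median RNA to DNA barcode read ratio; higher means stronger binding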
T4 chain: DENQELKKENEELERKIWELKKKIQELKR

[5] = target: T5, 4H1804-bH; test: two-hybrid library CCNG1;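 also: natural log of median RNA to DNA barcode read ratio; higher means stronger binding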
T5 chain: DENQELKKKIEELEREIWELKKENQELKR

[6] = target: T6, 4H1899-bH; test: two-hybrid library CCNG1;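 also: natural log of median RNA to DNA barcode read ratio; higher means stronger binding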
T6 chain: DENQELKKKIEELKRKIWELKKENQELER

[7] = target: T7, 4H1985-bH; test: two-hybrid library CCNG1
T7 chain: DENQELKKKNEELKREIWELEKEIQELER

[8] = target: T8, 4H3129-bH; test: two-hybrid library CCNG1
T8 chain: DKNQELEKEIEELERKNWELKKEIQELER

[9] = target: T9, 4H3172-bH; test: two-hybrid library CCNG1
T9 chain: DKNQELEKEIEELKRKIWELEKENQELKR

[10] = target: T10, 4H3414-bH; test: two-hybrid library CCNG1
T10 chain: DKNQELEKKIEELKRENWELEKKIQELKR

[11] = target: T11, 4H3592-bA; test: two-hybrid library CCNG1
T11 chain: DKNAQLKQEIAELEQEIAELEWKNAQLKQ

[12] = target: T12, 4H3613-bH; test: two-hybrid library CCNG1
T12 chain: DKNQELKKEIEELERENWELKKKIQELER

[13] = target: T13, 4H3628-bH; test: two-hybrid library CCNG1
T13 chain: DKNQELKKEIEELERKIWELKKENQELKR

[14] = target: T14, 4H3631-bH; test: two-hybrid library CCNG1
T14 chain: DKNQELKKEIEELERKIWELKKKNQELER

[15] = target: T15, 4H3638-bH; test: two-hybrid library CCNG1
T15 chain: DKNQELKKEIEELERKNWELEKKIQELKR

[16] = target: T16, 4H3817-bH; test: two-hybrid library CCNG1
T16 chain: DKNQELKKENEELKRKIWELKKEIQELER

[17] = target: T17, 4H3858-bH; test: two-hybrid library CCNG1
T17 chain: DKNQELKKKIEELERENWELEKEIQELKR

[18] = target: T18, 4H3974-bH; test: two-hybrid library CCNG1
T18 chain: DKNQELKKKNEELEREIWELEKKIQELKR

[19] = target: T19, 4H570-bH; test: two-hybrid library CCNG1
T19 chain: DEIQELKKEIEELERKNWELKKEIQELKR

[20] = target: T20, 4H584-bH; test: two-hybrid library CCNG1
T20 chain: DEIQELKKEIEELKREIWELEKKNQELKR

[21] = target: T21, 4H619-bH; test: two-hybrid library CCNG1
T21 chain: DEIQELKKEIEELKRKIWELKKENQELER

[22] = target: T22, 4H850-bH; test: two-hybrid library CCNG1
T22 chain: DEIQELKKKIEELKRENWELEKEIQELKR

[23] = target: T23, 4H906-bH; test: two-hybrid library CCNG1
T23 chain: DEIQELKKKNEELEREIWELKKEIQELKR

[24] = target: T24, 4H1802-AA; test: two-hybrid library CCmax
T24 chain: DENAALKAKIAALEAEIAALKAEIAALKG

[25] = target: T25, 4H2600-AA; test: two-hybrid library CCmax; conditions: mean of both orientations
T25 chain: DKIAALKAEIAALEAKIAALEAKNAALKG

[26] = target: T26, 4H2721-AA; test: two-hybrid library CCmax; conditions: mean of both orientations
T26 chain: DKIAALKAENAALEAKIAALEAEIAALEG

[27] = target: T27, 4H2750-AA; test: two-hybrid library CCmax; conditions: mean of both orientations
T27 chain: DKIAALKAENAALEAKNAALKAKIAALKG

[28] = target: T28, 4H2898-AA; test: two-hybrid library CCmax; conditions: mean of both orientations
T28 chain: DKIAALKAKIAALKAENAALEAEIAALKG

[29] = target: T29, 4H3020-AA; test: two-hybrid library CCmax; conditions: mean of both orientations
T29 chain: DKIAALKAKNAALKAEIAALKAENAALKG

[30] = target: T30, 4H3365-AA; test: two-hybrid library CCmax; conditions: mean of both orientations
T30 chain: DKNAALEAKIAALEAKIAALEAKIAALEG

[31] = target: T31, 4H355-AA; test: two-hybrid library CCmax; conditions: mean of both orientations
T31 chain: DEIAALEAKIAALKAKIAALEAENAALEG

[32] = target: T32, 4H3651-AA; test: two-hybrid library CCmax; conditions: mean of both orientations
T32 chain: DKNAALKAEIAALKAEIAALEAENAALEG

[33] = target: T33, 4H3705-AA; test: two-hybrid library CCmax; conditions: mean of both orientations
T33 chain: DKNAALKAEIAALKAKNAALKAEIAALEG

[34] = target: T34, 4H3782-AA; test: two-hybrid library CCmax; conditions: mean of both orientations
T34 chain: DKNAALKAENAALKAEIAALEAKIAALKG

[35] = target: T35, 4H465-AA; test: two-hybrid library CCmax; conditions: mean of both orientations
T35 chain: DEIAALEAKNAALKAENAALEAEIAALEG

[36] = target: T36, 4H486-AA; test: two-hybrid library CCmax; conditions: mean of both orientations
T36 chain: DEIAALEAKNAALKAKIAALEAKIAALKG

[37] = target: T37, 4H535-AA; test: two-hybrid library CCmax; conditions: mean of both orientations
T37 chain: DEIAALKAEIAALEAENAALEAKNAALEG

[38] = target: T38, 4H58-AA; test: two-hybrid library CCmax; conditions: mean of both orientations
T38 chain: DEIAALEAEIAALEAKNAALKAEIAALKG

[39] = target: T39, 4H656-AA; test: two-hybrid library CCmax
T39 chain: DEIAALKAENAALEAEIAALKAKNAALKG

[40] = target: T40, 4H895-AA; test: two-hybrid library CCmax; conditions: mean of both orientations
T40 chain: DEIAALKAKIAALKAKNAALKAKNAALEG

[41] = target: T41, 4H_APH; test: two-hybrid library CCmax; conditions: mean of both orientations
T41 chain: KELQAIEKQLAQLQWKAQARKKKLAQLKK

[42] = target: T42, 4H_BCR; test: two-hybrid library CCmax; conditions: mean of both orientations
T42 chain: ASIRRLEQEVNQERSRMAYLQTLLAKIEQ

[43] = target: 4H_GCN4; test: two-hybrid library CCmax
4H_GCN4, sequence (chain, as listed by the source): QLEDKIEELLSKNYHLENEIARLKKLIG

[44] = target: GCN2_T; test: two-hybrid library CCmax
[45] = target: T43, 4H496-bA; test: two-hybrid library CCNG1
T43 chain: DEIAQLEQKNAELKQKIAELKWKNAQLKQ

[46] = target: T44, O6-bP; test: two-hybrid library CCNG1
T44 chain: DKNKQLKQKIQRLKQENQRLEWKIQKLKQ

[47] = target: T45, P8A-bH; test: two-hybrid library CCNG1
T45 chain: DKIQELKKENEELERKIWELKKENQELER

[48] = target: T46, 4H2223-bA; test: two-hybrid library CCNG1
T46 chain: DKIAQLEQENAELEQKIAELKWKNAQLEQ

[49] = target: T47, 4H2438-bA; test: two-hybrid library CCNG1
T47 chain: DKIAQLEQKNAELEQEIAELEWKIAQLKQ

[50] = target: T48, 4H2473-bA; test: two-hybrid library CCNG1
T48 chain: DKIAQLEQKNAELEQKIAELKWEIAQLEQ

[51] = target: T49, 4H2503-bA; test: two-hybrid library CCNG1
T49 chain: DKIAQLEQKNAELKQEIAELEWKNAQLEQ

[52] = target: T50, 4H2588-bA; test: two-hybrid library CCNG1
T50 chain: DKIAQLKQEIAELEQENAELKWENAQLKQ

[53] = target: T51, 4H2692-bA; test: two-hybrid library CCNG1
T51 chain: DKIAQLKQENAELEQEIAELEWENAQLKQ

[54] = target: T52, 4H2717-bA; test: two-hybrid library CCNG1
T52 chain: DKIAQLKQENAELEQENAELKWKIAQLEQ

[55] = target: T53, 4H2839-bA; test: two-hybrid library CCNG1
T53 chain: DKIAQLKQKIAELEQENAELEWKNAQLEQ

[56] = target: T54, 4H2915-bA; test: two-hybrid library CCNG1
T54 chain: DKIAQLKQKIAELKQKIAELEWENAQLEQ

[57] = target: T55, 4H3057-bA; test: two-hybrid library CCNG1
T55 chain: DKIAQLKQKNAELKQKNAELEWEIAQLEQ

[58] = target: T56, 4H319-bA; test: two-hybrid library CCNG1
T56 chain: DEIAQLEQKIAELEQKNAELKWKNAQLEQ

[59] = target: T57, 4H3277-bA; test: two-hybrid library CCNG1
T57 chain: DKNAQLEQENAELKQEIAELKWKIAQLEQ

[60] = target: T58, 4H348-bA; test: two-hybrid library CCNG1
T58 chain: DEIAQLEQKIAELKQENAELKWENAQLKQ

[61] = target: T59, 4H40-bA; test: two-hybrid library CCNG1
T59 chain: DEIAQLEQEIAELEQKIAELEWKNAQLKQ

[62] = target: T60, 4H477-bA; test: two-hybrid library CCNG1
T60 chain: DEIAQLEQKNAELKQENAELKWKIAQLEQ

[63] = target: T61, 4H492-bA; test: two-hybrid library CCNG1
T61 chain: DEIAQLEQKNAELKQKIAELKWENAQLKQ

[64] = target: T62, 4H741-bA; test: two-hybrid library CCNG1
T62 chain: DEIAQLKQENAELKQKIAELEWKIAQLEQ

Binder: DENQELEKKNEELERKIWELKKEIQELER [4H1449-bH]
- interaction score [1]: -1.25
- interaction score [2]: -0.787
- interaction score [3]: -0.891
- interaction score [4]: -0.366
- interaction score [5]: -0.461
- interaction score [6]: -0.126
- interaction score [7]: -0.843
- interaction score [8]: -0.319
- interaction score [9]: -0.0351
- interaction score [10]: -0.216
- interaction score [11]: -0.126
- interaction score [12]: -0.131
- interaction score [13]: -0.479
- interaction score [14]: 0.733
- interaction score [15]: -0.0745
- interaction score [16]: -0.644
- interaction score [17]: -0.658
- interaction score [18]: 1.15
- interaction score [19]: -0.108
- interaction score [20]: -0.0853
- interaction score [21]: -2.2
- interaction score [22]: -0.674
- interaction score [23]: -1.2

Binder: DENAALKAKIAALEAEIAALKAEIAALKG [4H1802-AA]
- interaction score [24]: 1.63
- interaction score [25]: -0.95
- interaction score [26]: -1.29
- interaction score [27]: -1.63
- interaction score [28]: -1.81
- interaction score [29]: -1.81
- interaction score [30]: -1.3
- interaction score [31]: -0.981
- interaction score [32]: -1.48
- interaction score [33]: -1.42
- interaction score [34]: -1.38
- interaction score [35]: -1.48
- interaction score [36]: -1.28
- interaction score [37]: -1.73
- interaction score [38]: -1.15
- interaction score [39]: -2.89
- interaction score [40]: -1.85
- interaction score [41]: -1.86
- interaction score [42]: -1.68
- interaction score [43]: -1.26
- interaction score [44]: -1.36

Binder: DENQELKKEIEELKRENWELKKKIQELER [4H1629-bH]
- interaction score [3]: -0.954
- interaction score [4]: -2.67
- interaction score [5]: -1.81
- interaction score [7]: -0.16
- interaction score [8]: -0.581
- interaction score [9]: -0.534
- interaction score [10]: -1.1
- interaction score [14]: -0.299
- interaction score [15]: -1.09
- interaction score [16]: -0.618
- interaction score [18]: 0.236
- interaction score [45]: -2.88
- interaction score [19]: -1.69
- interaction score [20]: 0.366
- interaction score [21]: 0.577
- interaction score [22]: 1.03
- interaction score [23]: -0.794
- interaction score [46]: 1.7
- interaction score [47]: 0.887

Binder: DKIAQLEQENAELEQKIAELKWKNAQLEQ [4H2223-bA]
- interaction score [48]: 0.291
- interaction score [49]: 0.457
- interaction score [50]: -0.247
- interaction score [51]: 1.47
- interaction score [52]: -0.336
- interaction score [53]: -0.196
- interaction score [54]: -0.279
- interaction score [55]: -0.368
- interaction score [56]: 0.32
- interaction score [57]: 0.223
- interaction score [58]: -0.61
- interaction score [59]: -0.571
- interaction score [60]: -1.22
- interaction score [61]: -1.46
- interaction score [62]: -1.47
- interaction score [63]: 1.49
- interaction score [64]: 0.169
